Experimental data reported in US7387779B2, “Anti-angiogenic proteins and fragments and methods of use thereof” (Beth Israel Deaconess Medical Center, priority 1998, dated 2008).

Tested on: C-PAE cells
Experiment: Endothelial cell proliferation, methylene blue staining
Assay type: cell-based, bovine
Details: for inhibition of endothelial cell proliferation by synthetic peptides: 10 μg/ml; for EC50: equimolar comparison, read-out: ED50, anti-proliferative effect; for inhibition of endothelial cell proliferation, comparison with anti-αvβ3 antibody: increasing equimolar amounts; for inhibition of proliferation of C-PAE cells: 15 μg/ml; for Relative Cell No. (%) C-PAE: 15 μg/ml recombinant protein; for reduction of the number of cells: 10% FBS, 5 ng/ml bFGF, 3 ng/ml VEGF, 48 hours, 5 μg/ml and higher
Protocol: A methylene blue staining test was also done. 3,100 cells were added to each well and treated as above, and cells were then counted using the method of Oliver et al. (Oliver, M. H. et al., 1989, J. Cell. Science 92:513-18). All wells were washed one time with […] of 1×PBS and the cells were fixed by adding […] of 10% formalin in neutral-buffered saline (Sigma Chemical Co., St. Louis, Mo., USA) for 30 minutes at room temperature. After formalin removal cells were stained with a solution of 1% methylene blue (Sigma Chemical Co.) in 0.01 M borate buffer (pH 8.5) for 30 minutes at room temperature. After removal of staining solution, the wells were washed 5 times with […] of 0.01 M borate buffer (pH 8.5). Methylene blue was extracted from the cells with […] of 0.1N HCi/ethanol (1:1 mixture) for 1 hour at room temperature. The amount of methylene blue staining was measured on a microplate reader (BioRad, Hercules, Calif., USA) using light absorbance at 655 nm wavelength.
In the methylene-blue staining method, 7000 cells were plated into each well of a 96-well plate, and treated as described above. Cells were then counted using the method of Oliver et al. (1989, J. Cell. Sci. 92:513-8). After 48 hours of treatment, all wells were washed with 100 μl of PBS, and the cells fixed with 10% formalin in neutral-buffered saline (Sigma Chemical Co., St. Louis, Mo., USA). The cells were then stained with 1% methylene blue (Sigma) in 0.01M borate buffer, pH 8.5. Wells were washed with 0.01M borate buffer, and the methylene blue extracted from the cells with 0.1N HCl/ethanol, and the absorbance measured in a microplate reader (Bio-Rad, Hercules, Calif., USA) at 655 nm. Polymyxin B (Sigma) at a final concentration of 5 μg/ml was used to inactivate endotoxin (Liu, S. et al., 1997, Clin. Biochem. 30:455-63).
Proliferation of endothelial cells (C-PAE cells) and WM-164 melanoma cells was assayed by methylene blue staining, as described above in Examples 25 and 34. The results are shown in FIGS. 33A and 33B, which are a pair of graphs showing the effect of increasing concentration (x-axis) of Tumstatin, Tum-1, Tum-2, Tum-3 and Tum-4 on the relative number (y-axis) of C-PAE cells (FIG. 33A) and WM-164 cells (FIG. 33B). […] Tum-4, however, did have anti-proliferative activity in this cell line. […] Only Tum-4 inhibited WM-164 melanoma cells.
For the proliferation assay, Canstatin, Can-1 and Can-2 soluble proteins (0.1-20.0 μg/ml) were added to the growth medium of proliferating C-PAE cells, which were stimulated with 10% FBS in DMEM, in addition to 5 ng/ml bFGF and 3 ng/ml VEGF. The results are shown in FIG. 40, which is a graph showing the effect of increasing concentrations of Canstatin (♦), Can-1 (▪) and Can-2 (▴) (x-axis) on the relative cell number (y-axis) of C-PAE cells. Each concentration of each protein was tested in quadruplicate. Bovine serum albumin (BSA) was used as a control treatment. Polymyxin B was used to control for endotoxin interference, and no differences were found between assays run with and without polymyxin B added to the medium. Cells were allowed to proliferate for 48 hours, and were then fixed, stained and the density read with a Bio-Rad plate reader (Bio-Rad, Hercules, Calif., USA). Canstatin and Can-1 both caused dose-dependent decreases in the percent cell number, and both reduced the number of cells by 80% at concentrations of 5 μg/ml and higher.
An endothelial cell proliferation assay was used to compare the activity of Tumstatin and some of the deletion mutants. Recombinant Tumstatin (28 kDa), Tumstatin-44-131 (12 kDa) and T3 peptide were used in a methylene blue proliferation assay in equimolar concentrations.

## LQRFTTMPFLFCNVNDVCNF [T3]
20% FCS
  inhibition of endothelial cell proliferation by synthetic peptides: significantly (p<0.05) inhibit
  EC50: 2500 nM
Equimolar concentrations / molar basis
  fold less active than Tumstatin and Tumstatin-44-131: 2.5 fold

## GLKGKRGDSGSPATWTTRGF [T1]
20% FCS
  inhibition of endothelial cell proliferation by synthetic peptides: did not inhibit endothelial cell proliferation

B1: endostatin: tumor associated angiogenesis inhibitor used as comparator (protein, UniProt P39060 1572-1754, looked up)
Endostatin: HSHRDFQPVLHLVALNSPLSGGMRGIRGADFQCFQQARAVGLAGTFRAFLSSRLQDLYSIVRRADRAAVPIVNLKDELLFPSWEALFSGSEGPLKPGARIFSFDGKDVLRHPTWPQKSVWHGSDPNGRRLTESYCETWRTEAPSATGQASSLLGGRLLGQSAASCHHAYIVLCIENSFMTASK
modifications: Endostatin
  inhibition of endothelial cell proliferation, comparison with anti-αvβ3 antibody: dose-dependent inhibition

B2: Tum-2: residues 1 to 132 of Tumstatin (SEQ ID NO:23) (protein)
chain: GLKGKRGDSGSPATWTTRGFVFTRHSQTTAIPSCPEGTVPLYSGFSFLFVQGNQRAHGQDLGTLGSCLQRFTTMPFLFCNVNDVCNFASRNDYSYWLSTPALMPMNMAPITGRALEPYISRCTVCEGPAIAI
modifications: Tum-2 (amino acids 1-132 of SEQ ID NO10)
  inhibition of proliferation of C-PAE cells: 73.3%
20% FCS
  Relative Cell No. (%) C-PAE: 34.3 ± 3.9 %

B3: Can-1: N-terminal 114 amino acids of full-length Canstatin (protein, listed as Homo sapiens)
chain: VSIGYLLVKHSQTDQEPMCPVGMNKLWSGYSLLYFEGQEKAHNQDLGLAGSCLARFSTMPFLYCNPGDVCYYASRNDKSYWLSTTAPLPMMPVAEDEIKPYISRCSVCEAPAIA
  reduction of the number of cells: 80%

B4: Tumstatin-44-131: residues 44 to 131 of full-length Tumstatin (SEQ ID NO:33) (protein)
chain: FSFLFVQGNQRAHGQDLGTLGSCLQRFTTMPFLFCNVNDVCNFASRNDYSYWLSTPALMPMNMAPITGRALEPYISRCTVCEGPAIAI
modifications: Tumstatin-45-132 (amino acids 45-132 of SEQ ID NO10)
Pichia-expressed, 20% FCS
  ED50, inhibition of proliferation: 5 µg/mL
  EC50: 1000 nM

B5: Tum-1: residues 54 to 244 of Tumstatin, lacking the N-terminal 53 amino acids (SEQ ID NO:22) (protein)
chain: QRAHGQDLGTLGSCLQRFTTMPFLFCNVNDVCNFASRNDYSYWLSTPALMPMNMAPITGRALEPYISRCTVCEGPAIAIAVHSQTTDIPPCPHGWISLWKGFSFIMFTSAGSEGTGQALASPGSCLEEFRASPFLECHGRGTCNYYSNSYSFWLASLNPERMFRKPIPSTVKAGELEKIISRCQVCMKKRH
modifications: Tum-1 (Tumstatin N-53) (amino acids 54-244 of SEQ ID NO10)
  inhibition of proliferation of C-PAE cells: 65.6%
20% FCS
  Relative Cell No. (%) C-PAE: 20.5 ± 3.4 %

B6: Tumstatin: NC1 domain of the α3 chain of type IV collagen, residues 1-244 (SEQ ID NO:10) (protein, listed as Homo sapiens)
chain: GLKGKRGDSGSPATWTTRGFVFTRHSQTTAIPSCPEGTVPLYSGFSFLFVQGNQRAHGQDLGTLGSCLQRFTTMPFLFCNVNDVCNFASRNDYSYWLSTPALMPMNMAPITGRALEPYISRCTVCEGPAIAIAVHSQTTDIPPCPHGWISLWKGFSFIMFTSAGSEGTGQALASPGSCLEEFRASPFLECHGRGTCNYYSNSYSFWLASLNPERMFRKPIPSTVKAGELEKIISRCQVCMKKRH
  inhibition of proliferation of C-PAE cells: 78.5%
  EC50: 1000 nM
  inhibition of endothelial cell proliferation, comparison with anti-αvβ3 antibody: dose-dependent inhibition
20% FCS
  Relative Cell No. (%) C-PAE: 100.0 ± 3.2%

B7: Tum-4: residues 181 to 244 of Tumstatin (SEQ ID NO:25) (protein)
chain: EFRASPFLECHGRGTCNYYSNSYSFWLASLNPERMFRKPIPSTVKAGELEKIISRCQVCMKKRH
modifications: Tum-4 (amino acids 181-244 of SEQ ID NO10)
  inhibition of proliferation of C-PAE cells: did not inhibit
20% FCS
  Relative Cell No. (%) C-PAE: 95.7 ± 3.6%

B8: Canstatin: NC1 domain of the α2 chain of Type IV collagen (SEQ ID NO:6) (protein, listed as Homo sapiens)
chain: VSIGYLLVKHSQTDQEPMCPVGMNKLWSGYSLLYFEGQEKAHNQDLGLAGSCLARFSTMPFLYCNPGDVCYYASRNDKSYWLSTTAPLPMMPVAEDEIKPYISRCSVCEAPAIAIAVHSQDVSIPHCPAGWRSLWIGYSFLMHTAAGDEGGGQSLVSPGSCLEDFRATPFIECNGGRGTCHYYANKYSFWLTTIPEQSFQGSPSADTLKAGLIRTHISRCQVCMKNL
  reduction of the number of cells: 80%
10% FCS
  treatment level at which dye uptake dropped off to the level seen in unstimulated cells: 0.625 to 1.25 µg/mL
